Assay results from patent US20160264649A1.
Numbering of substitutions follows the chain as printed.

B1: 1503_H05 (PG16) (TCN-119) (antibody, V domains shown)
VH: QEKLVESGGGVVQPGGSLRLSCLASGFTFHKYGMHWVRQAPGKGLEWVALISDDGMRKYHSDSMWGRVTISRDNSKNTLYLQFSSLKVEDTAMFFCAREAGGPIWHDDVKYYDFNDGYYNYHYMDVWGKGTIVTVSS
VL: QSALTQPASVSGSPGQTITISCNGTRSDVGGFDSVSWYQQSPGKAPKVMVFDVSHRPSGISNRFSGSKSGNTASLTISGLHIEDEGDYFCSSLTDRSHRIFGGGTKVTVLG
B2: 1456_A12 (PG16) (TCN-117) (antibody, V domains shown)
VH: B1 VH with Q1H, K3Q, S7A, K87R, I132K
VL: B1 VL with R26S, S27R, I60M, V107L
B3: 1469_M23 (PG16) (TCN-118) (antibody, V domains shown)
VH: B1 VH with I132T
VL: B1 VL with K44R, V107L
B4: 1489_I13 (PG16) (TCN-120) (antibody, V domains shown)
VH: B1 VH with K3Q, V5L, D62N, I132T
VL: B1 VL with R26S

What follows are binders tested against HIV-1 THRO.18 Env (HIV-1) (assay: cell-based or functional assay).

| Binder | IC50, TZM-bl pseudovirus neutralization [µg/mL] |
| --- | --- |
| B1 | 4.12 |
| B2 | 2.08 |
| B3 | 7.01 |
| B4 | 7.41 |

These binders were tested against HIV-1 TR0.11 Env (HIV-1) (assay: cell-based or functional assay).

| Binder | IC50, TZM-bl pseudovirus neutralization [µg/mL] |
| --- | --- |
| B1 | 4.3 |
| B2 | 3.05 |
| B3 | 7.52 |
| B4 | 10.9 |

These binders were tested against HIV-1 CAAN Env (HIV-1) (assay: cell-based or functional assay).

| Binder | IC50, TZM-bl pseudovirus neutralization [µg/mL] |
| --- | --- |
| B1 | 13.5 |
| B2 | 10.6 |
| B3 | 17.7 |
| B4 | 24.9 |

Each binder was assayed against HIV-1 JR-CSF Env Y318A (HIV-1) (UniProt P20871) (assay: cell-based or functional assay).

| Binder | IC50, TZM-bl pseudovirus neutralization [µg/mL] |
| --- | --- |
| B1 | > 1 |
| B2 | > 1 |
| B3 | > 1 |
| B4 | > 1 |

What follows are binders tested against HIV-1 ZM233 Env (HIV-1) (assay: cell-based or functional assay).

| Binder | IC50, TZM-bl pseudovirus neutralization [µg/mL] |
| --- | --- |
| B1 | < 0.01 |
| B2 | < 0.01 |
| B3 | < 0.01 |
| B4 | < 0.01 |

Each binder was assayed against HIV-1 REJ04541 Env (HIV-1) (assay: cell-based or functional assay).

| Binder | IC50, TZM-bl pseudovirus neutralization [µg/mL] |
| --- | --- |
| B1 | 0.22 |
| B2 | < 0.01 |
| B3 | 0.39 |
| B4 | 0.34 |

What follows are binders tested against MuLV envelope (control pseudovirus) (assay: cell-based or functional assay).

| Binder | IC50, TZM-bl pseudovirus neutralization [µg/mL] |
| --- | --- |
| B1 | > 25 |
| B2 | > 25 |
| B3 | > 25 |
| B4 | > 25 |

Each binder was assayed against HIV-1 JR-CSF Env I309A (HIV-1) (UniProt P20871) (assay: cell-based or functional assay).

| Binder | IC50, TZM-bl pseudovirus neutralization [µg/mL] |
| --- | --- |
| B1 | > 1 |
| B2 | > 1 |
| B3 | > 1 |
| B4 | > 1 |

These binders were tested against HIV-1 CAP45 Env (HIV-1) (assay: cell-based or functional assay).

| Binder | IC50, TZM-bl pseudovirus neutralization [µg/mL] |
| --- | --- |
| B1 | < 0.01 |
| B2 | < 0.01 |
| B3 | < 0.01 |
| B4 | < 0.01 |

What follows are binders tested against HIV-1 ZM249 Env (HIV-1) (assay: cell-based or functional assay).

| Binder | IC50, TZM-bl pseudovirus neutralization [µg/mL] |
| --- | --- |
| B1 | < 0.01 |
| B2 | < 0.01 |
| B3 | < 0.01 |
| B4 | < 0.01 |

These binders were tested against HIV-1 92RW020 Env (HIV-1) (assay: cell-based or functional assay).

| Binder | IC50, TZM-bl pseudovirus neutralization [µg/mL] |
| --- | --- |
| B1 | 0.02 |
| B2 | 0.05 |
| B3 | 0.05 |
| B4 | 0.03 |

Each binder was assayed against HIV-1 DU156 Env (HIV-1) (assay: cell-based or functional assay).

| Binder | IC50, TZM-bl pseudovirus neutralization [µg/mL] |
| --- | --- |
| B1 | < 0.01 |
| B2 | < 0.01 |
| B3 | < 0.01 |
| B4 | < 0.01 |

These binders were tested against HIV-1 Du172 Env (HIV-1) (assay: cell-based or functional assay).

| Binder | IC50, TZM-bl pseudovirus neutralization [µg/mL] |
| --- | --- |
| B1 | < 0.01 |
| B2 | < 0.01 |
| B3 | < 0.01 |
| B4 | < 0.01 |

Each binder was assayed against HIV-1 AC10 Env (HIV-1) (assay: cell-based or functional assay).

| Binder | IC50, TZM-bl pseudovirus neutralization [µg/mL] |
| --- | --- |
| B1 | < 0.01 |
| B2 | < 0.01 |
| B3 | < 0.01 |
| B4 | < 0.01 |

These binders were tested against HIV-1 JR-CSF Env (wild-type) (HIV-1) (UniProt P20871) (assay: cell-based or functional assay).

| Binder | IC50, TZM-bl pseudovirus neutralization [µg/mL] |
| --- | --- |
| B1 | 0.001 |
| B2 | 0.001 |
| B3 | 0.002 |
| B4 | 0.002 |

Each binder was assayed against HIV-1 PVO.4 Env (HIV-1) (assay: cell-based or functional assay).

| Binder | IC50, TZM-bl pseudovirus neutralization [µg/mL] |
| --- | --- |
| B1 | 11 |
| B2 | 10.4 |
| B3 | 21.2 |
| B4 | 20.6 |

What follows are binders tested against HIV-1 ADA Env (HIV-1) (assay: cell-based or functional assay).

| Binder | IC50, TZM-bl pseudovirus neutralization [µg/mL] |
| --- | --- |
| B1 | 0.003 |
| B2 | 0.005 |
| B3 | 0.005 |
| B4 | 0.008 |

The binders below were run against HIV-1 ZM214 Env (HIV-1) (assay: cell-based or functional assay).

| Binder | IC50, TZM-bl pseudovirus neutralization [µg/mL] |
| --- | --- |
| B1 | > 25 |
| B2 | > 25 |
| B3 | > 25 |
| B4 | > 25 |

The binders below were run against HIV-1 DU422 Env (HIV-1) (assay: cell-based or functional assay).

| Binder | IC50, TZM-bl pseudovirus neutralization [µg/mL] |
| --- | --- |
| B1 | 0.71 |
| B2 | 0.36 |
| B3 | 0.97 |
| B4 | 1.87 |

The binders below were run against HIV-1 JR-FL Env E168K (HIV-1) (assay: cell-based or functional assay).

| Binder | IC50, TZM-bl pseudovirus neutralization [µg/mL] |
| --- | --- |
| B1 | 0.002 |
| B2 | 0.003 |
| B3 | 0.005 |
| B4 | 0.005 |
